From the domain aggregation screens of Martell et al. (2025)

Test: soluble fraction after stress (log2 fold change); higher = more stays soluble; pooled small domains, quantitative proteomics
Conditions: stress: pH 4
Method in brief: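 Pooled custom libraries of small protein domains were subjected to pH 4 and measured by high-throughput quantitative proteomics. The log2 fold change in soluble amount per domain is reported, higher values meaning more remained soluble. This is used as a measure of aggregation propensity.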

For “HMRLPLYLALAQTLRQEIDAKQYKIGAHLPPEDQLVVKYGVSRHTVRQALQELKNEGLITSKAGIGTIVSS”, the “soluble fraction (log2)” value was 0.154.
For “HMRLPQEVWEKIRAAYEAHGLSFSELAEMYGVNKSNISRRAKAEGWNQAETQRLITATVENE”, the “soluble fraction (log2)” value was 0.211.
For “HMRLREETRKVDKTGLIQVDGRHYRVPDEYSQKDVQILMDDNSIMVYRKGDFVIELDKETSVYMPH”, the “soluble fraction (log2)” value was -1.02.
In the case of “HMRMETRILTADESGIRLDAFLASRLAVSRSLAASLIDDGNVTLNGTVPKKKTAVNVGDILEVAMP”, the “soluble fraction (log2)” value is reported as 0.22.
For “HMRMLTKRRQDLLLELLEERGSITVSEVKDMLDASESTIRRDITALDEEGKLVKVFGGAVAAR”, the “soluble fraction (log2)” value was -0.465.
For “HMRMSRSARLFDLLHILRSHRRAVSGQALAQQLGISIRTLYRDIASLQAQGAKIEGEPGVGYMLKP”, the “soluble fraction (log2)” value was -0.0136.
With “HMRMTKQRQAVLDELTRVTDFRSAQQIFEDLHSQGHRVGLATIYRSLQGLAEDGSVDTLRSSDGESLY” the “soluble fraction (log2)” value was -0.169.
For “HMRMTRQRKVILEELGKVYTHPTADEIYTMVKEKLPNISLGTVYRNLDLLAENNQVLKLETAGNIRRYD”, the “soluble fraction (log2)” value was -0.375.
For “HMRMYDVNEYSDEELHRILDLSSPTDSELEARILQMIQKYKYTNGGDNEKMAVFFENIYHHFFD”, the “soluble fraction (log2)” value was -1.54.
For “HMRNAAGGIYGWMTLHQVAETVKLTEEEVIAITNLPAGIPRDVSLKNIEGVNDEELRALLEAYLEKQ”, the “soluble fraction (log2)” value was -0.968.
For “HMRNISLSLRWHSGEWTADRLKSEVLALPGAMDMTVFEPQSQAYLRVEQGFDTKLLPAGIDVH”, the “soluble fraction (log2)” value was -0.958.
In the case of “HMRNNKLRRANKLKTEFENLPHIGKKRAHVLLKAFGSTENLKMTTAQALSEAAKISLKQAEEVLEAVRG”, the “soluble fraction (log2)” value is reported as -0.0912.
For “HMRNQIRAVITPVPNQERYTVEMTIDDDAGNLLTLQMAAPDRQQAAEFAQRFQKHPEALYHAVLSVLL”, the “soluble fraction (log2)” value was -0.191.
In the case of “HMRNSFTVENTGERLDVFLTGQMPEFSRSHIQKLIASGQAWVNGVNRKGNFKLKPHDVVELEVPEPE”, the “soluble fraction (log2)” value is reported as 0.169.
In the case of “HMRNSVQREWIYDYIQRQDAHLSADEIYEGLLKEGKNISLATVYRNLSILVDEYKIASVMTDSKKQVYDK”, the “soluble fraction (log2)” value is reported as -0.327.
With “HMRNTPQRRHAILALLSEQGEVSVDALAKRFSTSEVTIRKDLAAMESHGLLLRRYGGAVPMPQELI” the “soluble fraction (log2)” value was 0.0719.
With “HMRPEVALSSRELEILEALATGKSNKELAQRLFISEATVKTHLIHIYQKLGVDTRTAAVTVARERKL” the “soluble fraction (log2)” value was -0.431.
For “HMRPEVTEHLKTADAILHGGDINRQSIVDELRQYAPLYIVRGNNDKDWAEAIPHDLTVTLGGVTFFMVHNR”, the “soluble fraction (log2)” value was -0.42.
In the case of “HMRPFAMNLLEKHKADIEVWLKHPNMTNTQIKRLLEELGTSVSVSSIDRFISTSFPKLPKHT”, the “soluble fraction (log2)” value is reported as -0.207.
For “HMRPIWVQLADDFRHRIVSGQWPPGSKIPSVRELAAETGVNPNTVQRALGALDGEGLTATERTAGRFVTT”, the “soluble fraction (log2)” value was -0.0115.
With “HMRPKVADIDYFDGKTFTIEDGSKHSITTSEAKKIYFYLVKNGYVDDESHVTDAYRSAATSGTLA” the “soluble fraction (log2)” value was -0.0612.
In the case of “HMRPQELSSLNTNQMRLYNSLPEAFITAEAKDIADKLRYSERSLFRFLNESNLFTKTEHGSYAKKA”, the “soluble fraction (log2)” value is reported as -0.585.
For “HMRPQYVDLFTKLSAEEAGAITSKLKELKVEYQLADNGSTIKVPQKDAAEIRLELANEGLPA”, the “soluble fraction (log2)” value was -0.283.
With “HMRPRQDRSEETRDRILDAVVELIAERGLAGVSHRAVADRAGVSLSATSYYFGSKAELERAALEEHYRR” the “soluble fraction (log2)” value was -0.992.
In the case of “HMRPSGEAVNAAYRLLKGANPSGNEGDLIQRAQEVAAILPKLNRSSAAAFAKDAKANGLTQAETIALWKGS”, the “soluble fraction (log2)” value is reported as 0.163.
With “HMRPTYRTRLEVLINNPAISGRDLDFAQSLLSYYERKGRLSAGRVKWVTTLEERYSPENLAASAAK” the “soluble fraction (log2)” value was -0.306.
With “HMRQFEPVEGYNPYADKNELHGYEYWGAKFADSRSPEETAWIKQQIDDENEDRRFISEAGLA” the “soluble fraction (log2)” value was -0.446.
In the case of “HMRQQQISAAIKTSVNGTVDYYVRRLPERDPRGDFLEVWDDLQKVIQAAHGIQVSHDELYEYFRRLK”, the “soluble fraction (log2)” value is reported as -1.19.
For “HMRQQSLHSLYRDHHSWLQNWLRRQLGNTWDAADLSQDTFIKVLASSQSVAEIREPRAYLLTVGKRL”, the “soluble fraction (log2)” value was -0.0586.
With “HMRQSDIAAAFRESILRSSKGFQYLHTRDFVTALRRRGIHLSEVEANSWIAREKTYFVDSALDHSENRLWI” the “soluble fraction (log2)” value was -0.634.
In the case of “HMRQSIHTALQLLTPREEEVLNLLVSGKSNKQVAEHFSLSSKTIERHRSSVMRKLDASSFAQLVRIAALR”, the “soluble fraction (log2)” value is reported as -0.404.
For “HMRQYPSGVFKEEGVKAVYIHAGTPFLVIAAQYKIPLARLFEWNNLLPSTEARISQVIYLERPG”, the “soluble fraction (log2)” value was 0.238.
In the case of “HMRRARVAGKGHFTGEDAMAVYRELEALFGETETLYLPGHRPFEAVLSKLALIGVPEKNTVPYTFAFVET”, the “soluble fraction (log2)” value is reported as -1.09.
For “HMRREIRLTVTEEIVLMKFLLTQIPYKNRDNFKTLLNDRQIRVNGSVVTWYNHPLKPGQEVTIGWFKM”, the “soluble fraction (log2)” value was -0.628.
For “HMRRPRGVFNLVPGKRFGFITPDGGGEDVFAHLANVRAGHVAEDRNAVEYGIGRGPDGRDQAVDIVPMP”, the “soluble fraction (log2)” value was 0.00891.
For “HMRRQRNPEIFDQLVNKFHFTFTQTQQLKQLIKRWHMLFPGKSLKSAIQGYKSAKEILTYINDSLDVVE”, the “soluble fraction (log2)” value was 0.0668.
In the case of “HMRRRTLRQGATGSDVHAVQRLLNVDGAGLRTDGIFGPATERAVIAYQRKHGLAVDGVVGRETWTALLG”, the “soluble fraction (log2)” value is reported as -0.0548.
In the case of “HMRRSDLVTQGDEILKRLQWNQQQAKDFLNQHLKASSRQQLTDEQLLNFNMLLEEQLVKSME”, the “soluble fraction (log2)” value is reported as -0.0311.
In the case of “HMRRSLIGPTVRERRRALGITQSRLAAEVGISASYLNLIEGDKRNIGGALLQRIAGALGLALD”, the “soluble fraction (log2)” value is reported as 0.0185.
For “HMRRTVIVTAAHAEIRERPDANAPLVFSAEQKVSLDYQETAPGGWVKVRHRDGQSGYVRTNQI”, the “soluble fraction (log2)” value was -0.159.
With “HMRRVGTALNRSHKVSYGESIQSIAARYNVNPTMLREYNRLKPEATITPGQILRIPPATIAS” the “soluble fraction (log2)” value was -0.195.
With “HMRRVRRTRRLLQDGLLGLMQHKAVADISVKELAEAADVARATVYVHFKDPADVLHQLEQGLY” the “soluble fraction (log2)” value was -0.151.
For “HMRSDHVFTSHLARRDKYISELESLSDSARDDHIQTIKEEDEYLLKYRRTRNLFGIPLNDEMKQFEPFNY”, the “soluble fraction (log2)” value was -1.16.
For “HMRSEILNLLREKSPQPVSGQDLANHFGITRTAVWKHIQSLKKMGYGIEAYTKKGYVLVSVPN”, the “soluble fraction (log2)” value was 0.175.
In the case of “HMRSGEDESFSAGLLEYPHYTRPAEFEGHRIPDILTSGDHAKVDAWRQEMSEHITRERRPDLWEMYKKK”, the “soluble fraction (log2)” value is reported as 0.0228.
For “HMRSHLSANLQRLRHIAGLTQKDLALAANLPRATLASLEQGEANPRLDTLLAVASALQVGLDELIAAP”, the “soluble fraction (log2)” value was -1.1.
For “HMRSIMAVSNYRHKKILEMVYQRKSVSADELAAEFGVSKITIRRDLDTLAMDKLLERTRGGAISISD”, the “soluble fraction (log2)” value was -0.128.
In the case of “HMRSRHYRFSTPFLDRLIAEIDWNSDNALSIFNQKLVHFDFLKYFSAIQPGSIVEIENLNFIWTGKRLEAH”, the “soluble fraction (log2)” value is reported as -0.71.
In the case of “HMRSVLSDEIYLLIRKMIFNYEILPGAKVNIDALAKKLDVSQTPVREALSRLESDGLIVKEPLKGFRATD”, the “soluble fraction (log2)” value is reported as -0.239.
For “HMRSVPNVAGLGMDGAAFQLGKAGFAIGTITPADDPKAVVGSIQRTEPAAGTVADRDTVVNLFQV”, the “soluble fraction (log2)” value was 0.22.
With “HMRSVTLQTDREGDILYVDGKQIGVSPQRLELSYGVHTIRAERGEQHTEKELEVTETGGETVVTLGFG” the “soluble fraction (log2)” value was -0.0908.
For “HMRSYTPGSAFRLSSVPVYNAETGPSIGVRSGTYYIHSLPVSNGRIRMTNLISRVGKPGQVSFWVEISR”, the “soluble fraction (log2)” value was 0.0269.
For “HMRTAELEVWDDDELNDVVKLIQNNHNINTLKLRFQENVSFSGLSLIAAVLTKQSIILEIEY”, the “soluble fraction (log2)” value was -1.32.
In the case of “HMRTDQYHYLAWKQVADELGIPFDEQVNERLRGVSRMASFDIILERYDGTMSDEEKIHWTDKKNEIYKSM”, the “soluble fraction (log2)” value is reported as -1.68.
For “HMRTGLSGMIGEIGIVKQAIDPEGKVAVHGELWKARADVALAAGQTVRVVAVDGLTMTVEATDSK”, the “soluble fraction (log2)” value was 0.0837.
In the case of “HMRTIPDALIGRPYESVETAIVLEGLQAKRTEVFHPTIRPGTVIRLEPTSGSELLRDGVVEIFVSQGPETT”, the “soluble fraction (log2)” value is reported as -1.47.
In the case of “HMRTITIDDSIAGKRLDEALTLLGAESSRTKVKLLFSSPNGVLVNGEKEKPHYRVEAGDVIQFGELPKK”, the “soluble fraction (log2)” value is reported as -0.104.
With “HMRTKEGLASQLEKIPGIGPVKRKALLKKFGSIDAIAAASKEELMLTDGITSSLADAIRDYF” the “soluble fraction (log2)” value was 0.391.
With “HMRTLKDSTEYLIRSMLLRGEMKVGEIYSANALAKELNISNSPVREAMMSLVDRGLLENVRNRGFRVV” the “soluble fraction (log2)” value was -0.115.
For “HMRTLRENIMDYFKQQTIIQKSSVILLPMSKRQLADYFGVQRPSLFRELKKLKEEGIIEINNRTITIK”, the “soluble fraction (log2)” value was -0.0293.
With “HMRTSIWTAIAHSLRSDIGSGVYGPDDKLPTESALAARFGVNRHTVRHAIKALTDEGLVLPRRGAGVFVTS” the “soluble fraction (log2)” value was -0.207.
In the case of “HMRTSPGADYEKTYYTIQSGDNLGAIAEKMGVSVADLKDWNDISGTKIYAGKKLVIYVKKGST”, the “soluble fraction (log2)” value is reported as -0.209.
In the case of “HMRTTTGSEGMIGSIGKAKTDLAPDGKIFIHGELWDATSSSPVSAGQKIEVTQIEGLKLHVKPVL”, the “soluble fraction (log2)” value is reported as 0.12.
For “HMRTVLSDETYLRIREMLLTHDIAPGERINIDALARELDVSQTPVREALARLESEDLVTKEPLRGYTATK”, the “soluble fraction (log2)” value was -0.123.
With “HMRTYEHALTEEEKELILIVSNLSEYKSLPPSQIVPKLADLGIYIASESSFYRVLRAHNQLHHRGR” the “soluble fraction (log2)” value was -1.27.
With “HMRTYYEILGVSKNASLHEIQKAYRELALKYHPKNNSDPTAEEKFTQINEAYTHLSDAARRRSYDDL” the “soluble fraction (log2)” value was 0.362.
In the case of “HMRVGADLTQRERELLALMAQGMSNQEIAKRLEIAVPTVKFHITNILDKLQVGNRTEAVIAALEHKLVP”, the “soluble fraction (log2)” value is reported as -0.767.
With “HMRVKLVKKSILASGGENIRVDKFLSNHILTMTRTQIKKLFLDGLVQVNKSFVKPGSILKGNEIITFSIPE” the “soluble fraction (log2)” value was -0.412.
In the case of “HMRVNINVSENILDWVMKRVNPSVLSSKQGELLYAWKEGRKVPTYNQIEKMSKVTGIPLGYFFLEKPPVE”, the “soluble fraction (log2)” value is reported as 0.411.
